Ends that are not written are not given here. * marks the point of attachment. Biotin = O=C1N[C@H]2[C@H](CS[C@H]2CCCCC(=O)*)N1
Columns and labels:
Assay in all cases: peptide or protein array; E. coli proteome chip: purified His-tagged proteins printed in duplicate on Fullmoon slides, blocked with 1% BSA; 10 nM N-terminal biotinylated LfcinB with 1% BSA, room temperature, 1 h; detected with DyLight 649-labeled streptavidin, ratio to DyLight 549-labeled anti-His antibody; ProCAT normalisation, local cut-off; triplicate chips
Settings in all cases: both partners purified
EnvR = biological target: T1, EnvR (E. coli K-12, UniProt P0ACT2 1-220)
T1 construct: EnvR, E. coli K-12
T1 sequence (looked up): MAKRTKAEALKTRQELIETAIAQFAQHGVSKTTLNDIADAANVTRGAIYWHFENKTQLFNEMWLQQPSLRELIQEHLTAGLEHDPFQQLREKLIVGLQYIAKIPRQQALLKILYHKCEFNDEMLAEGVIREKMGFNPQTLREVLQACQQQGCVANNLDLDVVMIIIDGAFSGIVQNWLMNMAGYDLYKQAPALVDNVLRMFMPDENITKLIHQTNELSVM

YqcA = biological target: T2, YqcA (E. coli K-12, UniProt P65367 1-149)
T2 construct: YqcA, E. coli K-12
T2 sequence (looked up): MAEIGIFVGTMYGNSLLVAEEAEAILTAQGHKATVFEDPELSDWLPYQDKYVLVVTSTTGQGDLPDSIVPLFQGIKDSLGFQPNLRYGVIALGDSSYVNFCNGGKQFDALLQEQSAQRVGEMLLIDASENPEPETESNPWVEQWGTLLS

NrdD = biological target: T3, NrdD (E. coli K-12, UniProt P28903 1-712)
T3 construct: NrdD, ribonucleotide reductase family, E. coli K-12
T3 sequence (looked up): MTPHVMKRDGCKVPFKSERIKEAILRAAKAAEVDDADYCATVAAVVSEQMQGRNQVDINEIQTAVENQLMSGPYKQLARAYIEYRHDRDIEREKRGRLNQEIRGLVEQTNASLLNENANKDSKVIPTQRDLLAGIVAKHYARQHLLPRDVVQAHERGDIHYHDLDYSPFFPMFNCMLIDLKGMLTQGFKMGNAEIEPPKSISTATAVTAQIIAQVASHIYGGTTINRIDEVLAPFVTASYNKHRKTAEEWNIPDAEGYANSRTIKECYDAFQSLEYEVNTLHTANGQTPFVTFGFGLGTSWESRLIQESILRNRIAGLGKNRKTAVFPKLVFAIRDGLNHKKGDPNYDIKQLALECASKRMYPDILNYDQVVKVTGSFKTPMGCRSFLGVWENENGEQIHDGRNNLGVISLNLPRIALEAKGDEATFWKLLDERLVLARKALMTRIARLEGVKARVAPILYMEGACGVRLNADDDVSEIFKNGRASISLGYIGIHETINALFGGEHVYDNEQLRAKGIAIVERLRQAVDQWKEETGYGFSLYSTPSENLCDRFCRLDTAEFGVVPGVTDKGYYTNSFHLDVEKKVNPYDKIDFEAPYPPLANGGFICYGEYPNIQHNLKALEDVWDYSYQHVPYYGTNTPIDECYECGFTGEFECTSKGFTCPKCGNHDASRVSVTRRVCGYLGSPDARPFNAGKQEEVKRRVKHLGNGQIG

RcsB = biological target: T4, RcsB (E. coli K-12, UniProt P0DMC7 1-216)
T4 construct: RcsB, E. coli K-12
T4 sequence (looked up): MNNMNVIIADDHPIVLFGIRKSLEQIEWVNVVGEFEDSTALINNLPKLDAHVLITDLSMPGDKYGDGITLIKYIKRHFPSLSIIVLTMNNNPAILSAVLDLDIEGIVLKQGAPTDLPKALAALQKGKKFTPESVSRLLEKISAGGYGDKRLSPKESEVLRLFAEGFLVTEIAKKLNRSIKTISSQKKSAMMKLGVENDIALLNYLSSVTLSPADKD

RfaD = biological target: T5, RfaD (E. coli K-12, UniProt P67910 1-310)
T5 construct: RfaD, E. coli K-12
T5 sequence (looked up): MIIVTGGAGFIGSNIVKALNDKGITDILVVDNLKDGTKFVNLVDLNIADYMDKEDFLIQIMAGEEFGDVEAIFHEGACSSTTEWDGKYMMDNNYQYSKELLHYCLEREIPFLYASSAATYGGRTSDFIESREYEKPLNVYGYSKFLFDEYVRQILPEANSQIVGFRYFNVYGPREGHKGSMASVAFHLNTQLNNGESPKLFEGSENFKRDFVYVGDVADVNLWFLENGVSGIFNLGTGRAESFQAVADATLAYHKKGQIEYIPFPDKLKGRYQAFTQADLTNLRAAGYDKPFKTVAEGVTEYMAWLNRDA

YjfW = biological target: T6, YjfW (E. coli K-12, UniProt P39305 1-284)
T6 construct: YjfW, E. coli K-12
T6 sequence (looked up): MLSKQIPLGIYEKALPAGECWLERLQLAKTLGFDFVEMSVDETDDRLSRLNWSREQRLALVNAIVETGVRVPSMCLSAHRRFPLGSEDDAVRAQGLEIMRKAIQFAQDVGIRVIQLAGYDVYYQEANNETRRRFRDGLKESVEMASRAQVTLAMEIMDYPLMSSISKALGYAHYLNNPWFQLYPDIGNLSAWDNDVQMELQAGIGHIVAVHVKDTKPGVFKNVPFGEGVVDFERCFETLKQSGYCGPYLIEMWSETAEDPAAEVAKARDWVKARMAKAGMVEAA

Measured: binding result

B1: N-terminal biotinylated Lactoferricin B (peptide, UniProt P24627 36-60, looked up)
peptide: Biotin-FKCRRWQWRMKKLGAPSITCVRRAF
modifications: ends and bridges not checked
notes: lactoferricin B (LfcinB), cationic antimicrobial peptide of 25 amino acids; also called biotinylated LfcinB; biotin-labeled LfcinB; source: bought: Kelowna Inc
binds: EnvR | YqcA | NrdD | RcsB | RfaD | YjfW
